This note sets out measurements from EP4681729A1 (Shanghai Mabgen Biotech Ltd., dated 2026).

Where two headings read alike, the source gives them in different places.

For experiment [1], the target named is T1, human PVRIG expressed on cells (human, UniProt Q6DKI7 1-326).
T1 sequence (looked up): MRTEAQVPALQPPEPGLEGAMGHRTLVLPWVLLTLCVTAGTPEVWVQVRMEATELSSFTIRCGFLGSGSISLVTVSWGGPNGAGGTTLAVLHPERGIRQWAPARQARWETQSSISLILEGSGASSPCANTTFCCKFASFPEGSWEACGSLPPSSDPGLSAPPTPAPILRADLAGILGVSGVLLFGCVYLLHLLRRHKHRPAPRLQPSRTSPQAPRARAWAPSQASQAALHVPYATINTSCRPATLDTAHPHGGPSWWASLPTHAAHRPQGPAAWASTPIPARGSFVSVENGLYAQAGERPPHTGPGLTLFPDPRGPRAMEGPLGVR
Briefly: cell-based or functional assay.

Experiment [2] has as its target T1, human PVRIG expressed on cells. Put plainly: cell-based or functional assay. The source holds these as a separate data set.

B1: Tab5 (antibody, V domains shown)
VH: EVQLVESGGGVVKPGGSLRLSCAASGFTFGTSSMNWVRQAPGKGLEWVAVISFDGTEIHYADSVKGRFTISRDNSKSTVFLQMNSLRPDDTALYYCAKGSGNIYFYSGMDVWGQGTTVTVSS
VL: DIQMTQSPSTLSASVGDRVTITCRAGQSISGWLAWFQQKPGKAPNLLIYETSTLESGVPSRFSGSGSGTEYTLTISSLQPDDFATYYCQQYYSYPLTFGQGTKVEIKR
With B1, the entries for the “PVRIG reporter gene cell activity EC50” value in experiment [1] and in experiment [2] were 0.74 nM and 1.38 nM, respectively.
